In assay [1] the target is Sr35 (Triticum monococcum) (UniProt S5ABD6). Description: cryo-EM structure.
Assay [2] shares this target. Put plainly: MST.
Assay [3] addresses 6×His-tagged AvrSr35 (residues 27 to 578) (Puccinia graminis f. sp. tritici). Put plainly: AUC.

Broadly, the stoichiometry N is the number of molecules, sites or subunits per partner or assembly. As usually defined, the Kd is a measure of binding affinity in units of concentration. Low values mean a tighter complex, high ones a looser complex.

Turning to “6×His-tagged AvrSr35 (residues 27 to 578) (natural protein)”, the stoichiometry N in assay [1] came to 1; in assay [3], 2. Besides, the Kd in assay [2] turned out to be 7.8 µM.

For the origin of these results see PMC9462685 (Science Advances, 2022).
